B1: NRC3_wobSeed16_DR0_C7A_o1 (dsDNA)
DNA 1: GCCAGCATAGGTCAGGGCCAGTATAGGAGGAACGTTGCGATTGACAGCGTAGAATGAAGG
DNA 2: CCTTCATTCTACGCTGTCAATCGCAACGTTCCTCCTATACTGGCCCTGACCTATGCTGGC
B2: NRC3_wobSeed135_DR5_A29G_o1 (dsDNA)
DNA 1: GCCGAACTAGGTCATTGACAGGACAGTGGATAGTAAGCGATTGACAGCGTAGAATGAAGG
DNA 2: CCTTCATTCTACGCTGTCAATCGCTTACTATCCACTGTCCTGTCAATGACCTAGTTCGGC
B3: NRC3_wobSeed82_DR3_A18C_o1 (dsDNA)
DNA 1: GCATCGAAAGGTCGACGCGGTGAGTATACACCGTTTGCGATTGACAGCGTAGAATGAAGG
DNA 2: CCTTCATTCTACGCTGTCAATCGCAAACGGTGTATACTCACCGCGTCGACCTTTCGATGC
B4: NRC3_wobSeed88_DR3_G20C_o1 (dsDNA)
DNA 1: GCTAGCCTAGGTCATGCGGCCCAGTATAGTGTCGGCGCGATTGACAGCGTAGAATGAAGG
DNA 2: CCTTCATTCTACGCTGTCAATCGCGCCGACACTATACTGGGCCGCATGACCTAGGCTAGC
B5: NRC3_wobSeed138_DR5_G19C_o1 (dsDNA)
DNA 1: GCGATACAGGGTCAGCTACAGGCCAGAGTATGGAAAGCGATTGACAGCGTAGAATGAAGG
DNA 2: CCTTCATTCTACGCTGTCAATCGCTTTCCATACTCTGGCCTGTAGCTGACCCTGTATCGC
B6: NRC3_wobSeed37_DR1_A14G_o1 (dsDNA)
DNA 1: GCCGTCCAAGGTCGAAGGTCAGTGAAGAGATGACGGGCGATTGACAGCGTAGAATGAAGG
DNA 2: CCTTCATTCTACGCTGTCAATCGCCCGTCATCTCTTCACTGACCTTCGACCTTGGACGGC
B7: NRC3_wobSeed1_DR0_A20T_o1 (dsDNA)
DNA 1: GCCAAACTAGGTCAAGGTCTAAGTCGGTTTGTGCCAGCGATTGACAGCGTAGAATGAAGG
DNA 2: CCTTCATTCTACGCTGTCAATCGCTGGCACAAACCGACTTAGACCTTGACCTAGTTTGGC
B8: NRC3_wobSeed112_DR4_G15C_o1 (dsDNA)
DNA 1: GCTAGCCTAGGTCACATCGGGCCAGTATACGCTATAGCGATTGACAGCGTAGAATGAAGG
DNA 2: CCTTCATTCTACGCTGTCAATCGCTATAGCGTATACTGGCCCGATGTGACCTAGGCTAGC
B9: NRC3_wobSeed136_DR5_T16A_o1 (dsDNA)
DNA 1: GCTAGCCTAGGTCATACAGGGGCCAGTATAGAAAGCGCGATTGACAGCGTAGAATGAAGG
DNA 2: CCTTCATTCTACGCTGTCAATCGCGCTTTCTATACTGGCCCCTGTATGACCTAGGCTAGC
B10: NRC3_wobSeed34_DR1_T4A_o1 (dsDNA)
DNA 1: GCAACGAAAGGTCGAAGGTGAGTATACCCACCCGAAGCGATTGACAGCGTAGAATGAAGG
DNA 2: CCTTCATTCTACGCTGTCAATCGCTTCGGGTGGGTATACTCACCTTCGACCTTTCGTTGC
B11: NRC3_wobSeed34_DR1_A21C_o1 (dsDNA)
DNA 1: GCATCGAAAGGTCGAAGGTGCGTATACCCACCCGAAGCGATTGACAGCGTAGAATGAAGG
DNA 2: CCTTCATTCTACGCTGTCAATCGCTTCGGGTGGGTATACGCACCTTCGACCTTTCGATGC
B12: NRC3_wobSeed46_DR1_A25C_o1 (dsDNA)
DNA 1: GCTTACCAAGGTGAAAGGTCGTTGCTGCACGCCTTGGCGATTGACAGCGTAGAATGAAGG
DNA 2: CCTTCATTCTACGCTGTCAATCGCCAAGGCGTGCAGCAACGACCTTTCACCTTGGTAAGC
B13: NRC3_wobSeed46_DR1_A5G_o1 (dsDNA)
DNA 1: GCTTGCCAAGGTGAAAGGTCGTTGATGCACGCCTTGGCGATTGACAGCGTAGAATGAAGG
DNA 2: CCTTCATTCTACGCTGTCAATCGCCAAGGCGTGCATCAACGACCTTTCACCTTGGCAAGC
B14: NRC3_wobSeed87_DR3_A23C_o1 (dsDNA)
DNA 1: GCCGAACTAGGTCATCCAGGACCGTGAATACATTGAGCGATTGACAGCGTAGAATGAAGG
DNA 2: CCTTCATTCTACGCTGTCAATCGCTCAATGTATTCACGGTCCTGGATGACCTAGTTCGGC
B15: NRC3_wobSeed87_DR3_T15C_o1 (dsDNA)
DNA 1: GCCGAACTAGGTCACCCAGGACAGTGAATACATTGAGCGATTGACAGCGTAGAATGAAGG
DNA 2: CCTTCATTCTACGCTGTCAATCGCTCAATGTATTCACTGTCCTGGGTGACCTAGTTCGGC
B16: NRC3_wobSeed50_DR2_G11T_o1 (dsDNA)
DNA 1: GCCCTAGTTGTTCAGGAGGTCACACACCGGATATGAGCGATTGACAGCGTAGAATGAAGG
DNA 2: CCTTCATTCTACGCTGTCAATCGCTCATATCCGGTGTGTGACCTCCTGAACAACTAGGGC
B17: NRC3_wobSeed13_DR0_C13T_o1 (dsDNA)
DNA 1: GCCGTCCAAGGTTAAGGTCAGTGAAAGAGACTCGAAGCGATTGACAGCGTAGAATGAAGG
DNA 2: CCTTCATTCTACGCTGTCAATCGCTTCGAGTCTCTTTCACTGACCTTAACCTTGGACGGC
B18: NRC3_wobSeed113_DR4_G29C_o1 (dsDNA)
DNA 1: GCATATGTAGGTTAGCTGGGGTCATTCACACTAGGCGCGATTGACAGCGTAGAATGAAGG
DNA 2: CCTTCATTCTACGCTGTCAATCGCGCCTAGTGTGAATGACCCCAGCTAACCTACATATGC
B19: NRC3_wobSeed76_DR3_G9C_o1 (dsDNA)
DNA 1: GCCCTACTCGGCCAAAAAGGTCATTGATGCCGATAAGCGATTGACAGCGTAGAATGAAGG
DNA 2: CCTTCATTCTACGCTGTCAATCGCTTATCGGCATCAATGACCTTTTTGGCCGAGTAGGGC
B20: NRC3_wobSeed110_DR4_A15T_o1 (dsDNA)
DNA 1: GCTCTGCTAGGTCATCGATGGTCAGCTAATCTGCTAGCGATTGACAGCGTAGAATGAAGG
DNA 2: CCTTCATTCTACGCTGTCAATCGCTAGCAGATTAGCTGACCATCGATGACCTAGCAGAGC
B21: NRC3_wobSeed134_DR5_T23C_o1 (dsDNA)
DNA 1: GCGCTGCTAGGTCAACTGATGGCCAGCTAAAGCTCGGCGATTGACAGCGTAGAATGAAGG
DNA 2: CCTTCATTCTACGCTGTCAATCGCCGAGCTTTAGCTGGCCATCAGTTGACCTAGCAGCGC
B22: NRC3_wobSeed15_DR0_G23A_o1 (dsDNA)
DNA 1: GCCGAACTAGGTCAAGGACAGTAAATCTCCGCACGCGCGATTGACAGCGTAGAATGAAGG
DNA 2: CCTTCATTCTACGCTGTCAATCGCGCGTGCGGAGATTTACTGTCCTTGACCTAGTTCGGC
B23: NRC3_wobSeed15_DR0_A18C_o1 (dsDNA)
DNA 1: GCCGAACTAGGTCAAGGCCAGTGAATCTCCGCACGCGCGATTGACAGCGTAGAATGAAGG
DNA 2: CCTTCATTCTACGCTGTCAATCGCGCGTGCGGAGATTCACTGGCCTTGACCTAGTTCGGC
B24: NRC3_wobSeed44_DR1_A5T_o1 (dsDNA)
DNA 1: GCTGTATGAGGTTAAAGATCAGGGAACGTGGCGTCGGCGATTGACAGCGTAGAATGAAGG
DNA 2: CCTTCATTCTACGCTGTCAATCGCCGACGCCACGTTCCCTGATCTTTAACCTCATACAGC

Target: FXR:RXRa (Homo sapiens, UniProt Q96RI1;P19793 full;full)
Assay: no ligand; PBM; 270 nM : 90 nM RXRa; PBS pH 7.4, 2% milk, 0.02% Triton X-100, 1 mM DTT, BSA, 0.4 mg/ml salmon testes DNA
Settings: tags: His kept;His cleaved; copies: 1;1; label: surface-attached array probe
Outline: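 Ligand-free nuclear receptor dimers were bound for 1 h to custom Agilent 4×180K protein-binding microarrays. Detection used antibodies against each partner (one per run). Binding z-scores rest on regression-normalized fluorescence, with random background probes as the reference.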

FXR:RXRa, sequence (Q96RI1 whole entry, chain 1 of 2): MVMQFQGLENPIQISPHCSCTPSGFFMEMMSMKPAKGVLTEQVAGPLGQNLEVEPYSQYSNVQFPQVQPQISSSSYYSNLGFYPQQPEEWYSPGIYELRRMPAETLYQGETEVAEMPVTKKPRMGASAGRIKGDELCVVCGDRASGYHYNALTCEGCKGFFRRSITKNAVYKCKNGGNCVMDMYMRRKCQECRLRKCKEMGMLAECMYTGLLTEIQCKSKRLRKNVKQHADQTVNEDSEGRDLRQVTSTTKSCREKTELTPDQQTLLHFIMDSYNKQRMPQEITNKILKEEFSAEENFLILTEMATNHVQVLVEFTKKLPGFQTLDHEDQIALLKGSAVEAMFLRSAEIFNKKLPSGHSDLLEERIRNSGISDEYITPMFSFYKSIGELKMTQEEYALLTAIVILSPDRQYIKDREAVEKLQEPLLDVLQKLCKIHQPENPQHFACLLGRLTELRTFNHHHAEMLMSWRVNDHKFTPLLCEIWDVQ
FXR:RXRa, sequence (P19793 whole entry, chain 2 of 2): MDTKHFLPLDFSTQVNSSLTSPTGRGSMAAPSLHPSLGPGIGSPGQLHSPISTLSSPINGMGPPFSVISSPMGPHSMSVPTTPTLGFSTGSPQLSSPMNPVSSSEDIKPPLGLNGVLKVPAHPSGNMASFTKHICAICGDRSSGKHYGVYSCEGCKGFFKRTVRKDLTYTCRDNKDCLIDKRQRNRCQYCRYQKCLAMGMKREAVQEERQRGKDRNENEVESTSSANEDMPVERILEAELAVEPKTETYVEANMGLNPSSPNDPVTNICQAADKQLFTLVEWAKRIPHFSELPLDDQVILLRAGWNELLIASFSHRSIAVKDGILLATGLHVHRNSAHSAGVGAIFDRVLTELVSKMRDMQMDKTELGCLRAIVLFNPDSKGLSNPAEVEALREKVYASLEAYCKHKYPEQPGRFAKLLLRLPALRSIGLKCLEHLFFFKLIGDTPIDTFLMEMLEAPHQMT

Q: With B1 as the binder, how does the binding signal read?
A: Its binding signal is 3.48 PBM z-score against 500 random probes.

Q: Which binding signal does the source give for B2 here?
A: Its binding signal is 4.02 PBM z-score against 500 random probes.

Q: With B3 as the binder, how does the binding signal read?
A: Its binding signal is 3.87 PBM z-score against 500 random probes.

Q: B4 was tested. Which binding signal did it give?
A: Its binding signal is 3.84 PBM z-score against 500 random probes.

Q: B5 was tested. Which binding signal did it give?
A: Its binding signal is 4.25 PBM z-score against 500 random probes.

Q: How did the binding signal turn out when B6 was run?
A: The binding signal was 3.76 PBM z-score against 500 random probes.

Q: B7 was tested. Which binding signal did it give?
A: Its binding signal is 3.61 PBM z-score against 500 random probes.

Q: For B8, which binding signal is on record?
A: The binding signal was 3.96 PBM z-score against 500 random probes.

Q: For B9, which binding signal is on record?
A: Its binding signal is 4.09 PBM z-score against 500 random probes.

Q: For B10, which binding signal is on record?
A: Its binding signal is 4.23 PBM z-score against 500 random probes.

Q: B11 was tested. Which binding signal did it give?
A: Its binding signal is 4.14 PBM z-score against 500 random probes.

Q: Which binding signal does the source give for B12 here?
A: Its binding signal is 3.81 PBM z-score against 500 random probes.

Q: How did the binding signal turn out when B13 was run?
A: Its binding signal is 3.55 PBM z-score against 500 random probes.

Q: With B14 as the binder, how does the binding signal read?
A: The binding signal was 3.93 PBM z-score against 500 random probes.

Q: Which binding signal does the source give for B15 here?
A: Its binding signal is 3.58 PBM z-score against 500 random probes.

Q: B16 was tested. Which binding signal did it give?
A: The binding signal was 3.71 PBM z-score against 500 random probes.

Q: For B17, which binding signal is on record?
A: Its binding signal is 4.12 PBM z-score against 500 random probes.

Q: B18 was tested. Which binding signal did it give?
A: The binding signal was 4.06 PBM z-score against 500 random probes.

Q: B19 was tested. Which binding signal did it give?
A: The binding signal was 3.98 PBM z-score against 500 random probes.

Q: Which binding signal does the source give for B20 here?
A: Its binding signal is 3.45 PBM z-score against 500 random probes.

Q: How did the binding signal turn out when B21 was run?
A: The binding signal was 3.9 PBM z-score against 500 random probes.

Q: For B22, which binding signal is on record?
A: The binding signal was 3.73 PBM z-score against 500 random probes.

Q: Which binding signal does the source give for B23 here?
A: Its binding signal is 3.52 PBM z-score against 500 random probes.

Q: How did the binding signal turn out when B24 was run?
A: The binding signal was 3.64 PBM z-score against 500 random probes.

Source: PMC6555819, “Comprehensive study of nuclear receptor DNA binding provides a revised framework for understanding receptor specificity”
